Reference: the DeepSol protein solubility set

Assay: soluble on expression in E. coli; label from the status in PepcDB or PDB records

Sequence	soluble on expression in E. coli
MLITHLIDSLSDRAVITPLTPTSVIIYDKNELKVYVGFTNNRNSLEYTKEVVLLLSTEIPKKAEIREIIVSKNGDYVILEGPRSLFVVRIGAEILVAKPDRLPSECFCECYPLHDSLLLQNISLSVVKVRLLPEKCDEKTFVTAVLFSDNCIRFYNLQKKFDSLLLAVDFRNHLHQVHDENVANNTFGLQKALVSFDLIPPKPNTSHFSIISIDSDCDFYTSFVHFSCFKEGYAPRIHRIEPVDGLPCDPLDLRYIQTTNPRICSVFVLVSGGGVLSHLVVFPNEFGEFRFLVKDQLRLPSSNGDPRIVQNQIRSLKVSRYEIATSSSLFSVNIFPWFEALTSISPTSTLEKETRVSELVDAVIPSDELSNTTKWTGARALRAVSVQLTQSLATEEEELLPESENIMHLVILENKDGQPAHLFNISTFDNIWSTENKTSFGRDSVSQPPMKSTGSLEQQLAALKPLAACVISEKVSCEEAIDAAMKFFDAVDERLKKHCEISKLFVERCLAVSSSAQALDEKQQSVDQRLIEETNTVEELKIRMHETKERMEGARKGINVLFHRVDENVPLSDNEIRIFERLKEHQKMLSDMTKLVPKMTLDSNEIHRMANIVLKKRGTGEEQNRFAAVEKNATEIESLEARENKLNTGISELSI	not soluble
MKVPRLIVAGTESGAGKTTITISIILKLLANQMKVKPYKIGPDYIDPQFHRLASGVPSENLDLWMMNDDQIRYLLIEGSREFDISVIEGVMGLFDGAGSDFTGSTYDLARRTGTPIVLVIDGYGISATAAAIVSGIKAYAGELLRGVIVTRVSGESHYRLIRDAVEEKTGVPVLGYMIRNEKAVLESRHLGLVQAYEIDEIREIFGAIDSSTVIDMHQIIDIARSADKLETLYSPEIERLGTFKVSVAMDSAFDFYYEENLRMLKRMGASIRYFSPMGNEVPDADSDLIYLGGGYPEVFAGKLQSATDTIEAIRHAASIGTGVYAECGGYMFLCRSLESTDGHIYGGVGIIPASVYMDASLVIGYREISAKRDTSILRAGETARGHEFHKSRIRFDGPYDHPFVLKSRSSSFEDGFSSGSVTATYAHIHFLSNPRVAENLLIALEHHHHHH	not soluble
IIAWLGPQLRELTPVDTNKDPKTRLQEFLQSRGCDLPRYEVVDIQGEPHCRTFFVDCEVALLSDKTHGHGGSRRIAEQVAAAAALVALGVENGHD	not soluble
MRGSHHHHHHGSMGKGITGFDPSLYSYLQSISADDSFYLAQLRRETAHLPGAPMQISPEQAQFLGLLISLTGAKQVLEIGVFRGYSALAMALQLPPDGQIIACDQDPNATAIAKKYWQKAGVAEKISLRLGPALATLEQLTQGKPLPEFDLIFIDADKRNYPRYYEIGLNLLRRGGLMVIDNVLWHGKVTEVDPQEAQTQVLQQFNRDLAQDERVRISVIPLGDGMTLALKK	soluble
MNYWLMKSEPDEFSIEDLKARPNQTEPWFGIRNYQARNYMRDAMQIGDKVFFYHSSCKVPGIVGIAEVVTNAYPDSTAFDPESTYFDPKSDPSNPRWLRVDIRFVEQFKEIIPLSLIKSLPQLADMYLVSKGSRLSIQPVTAEQWQAVLMLSRLEHHHHHH	soluble
SFRMLSSSFEDDPFFADSFLAHRESMRNMMRSFSEPLGRDLLSISDGRGRTHNRRERDDGEDSLTATSFSLVPFGRFGGMHADVNPFQTMDRMMANMRSGIQELQRNFGQLSMDPNGHSFCSSSVMTYSKVGDEPPKVFQASTQTRRAPGGVKETRKAMRDSDSGLERMAVGHHIHDRGHVIRKSKNNKTGDEEVNQEFINMNESDAHAFDDEWQNEVLKYKSIGRSGNTGMRSVGHEHPGSRELKRREKIHRNSAIESGRRSNVFVDKLNVKGSPVKITKK	soluble
MKPYERLLEHNIKPSMQRIAIMEYLMNHPIHPSADDIYTALSPSMPTLSKTTVYNTLRLFSEQGAALMLTIDEKNTNFDADTSVHSHFLCRYCGHIYDLKSPEAVKKVESLEMDGHQVTEVHYYYKGICKNCLRKDKETRID	not soluble
MSEKTFLVEIGTEELPPKALRSLAESFAANFTAELDNAGLAHGTVQWFAAPRRLALKVANLAEAQPDREIEKRGPAIAQAFDAEGKPSKAAEGWARGCGITVDQAERLTTDKGEWLLYRAHVKGESTEALLPNMVATSLAKLPIPKLMRWGASDVHFVRPVHTVTLLLGDKVIPATILGIQSDRVIRGHRFMGEPEFTIDNADQYPEILRERGKVIADYEERKAKIKADAEEAARKIGGNADLSESLLEEVASLVEWPVVLTAKFEEKFLAVPAEALVYTMKGDQKYFPVYANDGKLLPNFIFVANIESKDPQQIISGNEKVVRPRLADAEFFFNTDRKKRLEDNLPRLQTVLFQQQLGTLRDKTDRIQALAGWIAEQIGADVNHATRAGLLSKCDLMTNMVFEFTDTQGVMGMHYARHDGEAEDVAVALNEQYQPRFAGDDLPSNPVACALAIADKMDTLAGIFGIGQHPKGDKDPFALRRAALGVLRIIVEKNLNLDLQTLTEEAVRLYGDKLTNANVVDDVIDFMLGRFRAWYQDEGYTVDTIQAVLARRPTRPADFDARMKAVSHFRTLDAAAALAAANKRVSNILAKSDEVLSDRVNASTLKEPEEIKLAMQVVVLRDKLEPYFTEGRYQDALVELAELREPVDAFFDKVMVMVDDKELRINRLTMLEKLRELFLRVADISLLQ	soluble
MADRANNDDDVDRQPLPIADDADDDVDGIDEMFNNEDEDPEDEEGENLFGDDMERDYREQPELDQYSESGMDDASDVGSLSVSARRAAEREMAQRDQLLDDDALMYEDGDSEEVDTRRRGRGRRGRGDAADDDSVPMEEEDIPVDILENIRGRTIRDHVSDEAVAKEIERRFKNFLRSFHEPGNKQTKYIQMIKSMAADNRESLEVSFTDLSDDNGEQNISYFLPEAPNEMLAIMDRAATEVVMNMYPFYSRVCNEIKVRISQLPVEEDIRMLRQVHLNMLIRTAGVVTIASGILPQLAVVKYDCVACGYLLGPFVQQNDEEVRPTICPSCQGKGPFELNVENTVYHNYQRITMQESPNKVAAGRLPRSKDVILLGDLCDSCKPGDEIEVTGVYTNNFDGSLNYKQGFPVFNTLIHANHITNKDKMASDQLTDEDIKAIRELSQDPNISQRVFSSIAPSIYGHDDVKRAIALALFRGEAKNPGAKHRLRGDINVLLCGDPGTAKSQFLRYAAHIAPRSVLTTGQGASAVGLTAYVQRHPVTREWTLEAGAMVLADKGVCLIDEFDKMSDQDRTSIHEAMEQQSISISKAGIVTSLHARCTVIAASNPIGGRYNPTRTFAENVDLTEPILSRFDVLCVIRDSVDSVEDERLAKFVVGNHRTHHPDAKKIVKEGDELEEDQMDERTGVRLIPQDLLRKYIIYAREKCHPTLPEQHSEKFSNIFAQMRKESMATGSVAITVRHVESMIRLSEAHAKLHLRSYVNDEDCAAAIRVMLESFVNTQKASIMRMMKKTFSRHLTENRSANELLLFILKQLIRQQMHYATARAAAGTILQSVTIPESEFIEKAQQLRIENVKPFYTSEIFASNNFLYDPSKKTIVQEIF	not soluble
MSNEQLADLTQPQRDRLAFVELRVRFIGEIRRQDLVTRFGIQSAAASRDLALYKELAPGNIDYDSKGKSYVLGPDFRPVFDFPPERVLSWLTQGFGDGEPMRLKAWVASESPSRLTHPDLDVLASVTRAIHQECPLGIEYHSISSGRTEREIVPFALIDNGLRWHVRAFDRKSQEFRDFVITRIKRPVLIRDAEVQSHERSDQDIQWTRIVELEMVPHPDQPRPEITEMDYGMVRGSLRMKLRAATAGYILRQWSVDCSPDHSLRGYEFRLWLKDHLALYGVKNAVLAPGYRSPDQNKGEQ	soluble
MSLSFDFSPDFNPLAARMRPASVEEYIGQSHLLGEGKPLRQALLAGKVHSMLLWGPPGTGKTTLAELVARYANAHVERISAVTSGVKEIRAAIEQAKNVAQSRGQRTLLFVDEVHRFNKSQQDAFLPFIEDGTVIFIGATTENPSFEVNNALLSRCRVYLIKRLEDDAIGQILAQANSDEARGLGKRGLLLKAELKSAIARLCDGDARKALNLLELMSDLLPDGGEYNLELLSEVAGHQAAGYDKNGDQYYDLISAVHKSIRGSAPDAALYWFCRILEGGGDPLYVARRLLAIASEDIGNADPNAMTVALNAWDCFHRVGPAEGERAIAQAVIYLASAPKSNAVYTAFKAARVLARETGNAPVPNHLRNAPTKLMSELGVGEGYRYAHDEDGAFAAGENYFPEVLQHSRIYQPTARGFEKRIRDKLAHLDALNQQSEGHHHHHH	soluble
MSLAAENILQRQFKAEAPCEKWVTDITEFRAGGQKLYLSPILDLFYGEIVAWETACRPTEELVKRMLNKGLESLAEGEKPLLHSDQGWHYRIKSYQSALADRGLVQSMSRKGNSLDNAVMENFFGHLKEEMYYRRDYRNVEELENAVNEYITYWNQKRIKLSLGGLSPVEYRTEYQKAGEGHHHHHH	not soluble
MGSDKIHHHHHHMTWGCHHLIKKVDASFSLGPISFTLEPGTVTALVGDNGSGKSTFFRLWMDLIKANQGTWERKEGWKEDTAYVPQQLIGIEAFTLEELAYLYEGMYVKWDQKTFERLVESFSLPMKKPLHSLSVGMQKKALFSMAIARKPNLFLLDEPFAGVDMDGQEQMKDELIRYLTGHEQATVLFATHSAQEVKELADYLLVLHQGQMLGFYEKDRLLSSWGRFWLEGNASAIKNEENVVSMKIAGTRIEIITSDALRFEEQIAAAALEKVEAQPLELHEIVRLLKKRNVSVS	not soluble
MSASSLLEQRPKGQGNKVQNGSVHQKDGLNDDDFEPYLSPQARPNNAYTAMSDSYLPSYYSPSIGFSYSLGEAAWSTGGDTAMPYLTSYGQLSNGEPHFLPDAMFGQPGALGSTPFLGQHGFNFFPSGIDFSAWGNNSSQGQSTQSSGYSSNYAYAPSSLGGAMIDGQSAFANETLNKAPGMNTIDQGMAALKLGSTEVASSVPKVVGSAVGSGSITSNIVASSSLPPATIAPPKPASWADIASKPAKQQPKLKTKNGIAGSSLPPPPIKHNMDIGTWDNKGPVAKAPSQALVQNIGQPTQGSPQPVGQQANNSPPVAQASVGQQTQPLPPPPPQPAQLSVQQQAAQPTRWVAPRNRGSGFGHNGVDGNGVGQSQAGSGSTPSEPHPVLEKLRSINNYNPKDFDWNLKHGRVFIIKSYSEDDIHRSIKYNIWCSTEHGNKRLDAAYRSMNGKGPVYLLFSVNGSGHFCGVAEMKSAVDYNTCAGVWSQDKWKGRFDVRWIFVKDVPNSQLRHIRLENNENKPVTNSRDTQEVPLEKAKQVLKIIASYKHTTSIFDDFSHYEKRQEEEESVKKERQGRGK	soluble
MAHHHHHHMERCLLLSAWPTLHEREVKEASEFVRSSSVSRRDSMALSLNHAGAFPSASHSGTHRGSFATMLATGSRAASPHPHDPCATPPPGIRCLDLPEHYHARDTRKNKSAVNDYDEDEDDGAYRSGSCSRCLSRASSFSLGAGGMTPLAWKMSSSMNGESPSCRATESPCSAFAQEHLVATAVMERRVNRMAGGISFQGMTPMDALLAGRLAPPDRREEQQELDESGDARGVSPPFRERSMAPAELVAERTGRQQPR	not soluble
MGSDKIHHHHHHMAKSDLIVGLDIGTTKICCVVGEPTEEGIDIVGIGTSPSTGLRKGVVVNIEQTVQSIKKALEEAELMAGCEIRSVYAGIAGSHIKGANSDGVIAVKGGEVAPRDVERVLDAAKALNIPMDREVIHILPQEYIVDEQRGIADPLGMAGVRLEVKVHIVTGAVASAQNIVRSCHRSGLDVSDIVLEALASSKAVLTEEEREIGVALVDLGGGTTDIAVFANDSIKHTGVLALGGQNLTNDIAFGLRTPMASAEKIKIKYGCAMAEMVRDDEGIEVASVGDREPRRLSRQVLAEICEPRMEEILSLVDQELVRYGFKNMIGAGVVLTGGTALIEGCQELGEQIFNLPTRIGYPRNVGGLKDVVNSPKFATAVGLLCYGAEKEGLELKFRIRDGNMFNRVLSRMRKWFSDIS	not soluble
